Reference: IntAct's records for PubMed 31515488

B1: Keratin, type I cytoskeletal 20 (Homo sapiens), P35900 (parent)
chain: MDFSRRSFHRSLSSSLQAPVVSTVGMQRLGTTPSVYGGAGGRGIRISNSRHTVNYGSDLTGGGDLFVGNEKMAMQNLNDRLASYLEKVRTLEQSNSKLEVQIKQWYETNAPRAGRDYSAYYRQIEELRSQIKDAQLQNARCVLQIDNAKLAAEDFRLKYETERGIRLTVEADLQGLNKVFDDLTLHKTDLEIQIEELNKDLALLKKEHQEEVDGLHKHLGNTVNVEVDAAPGLNLGVIMNEMRQKYEVMAQKNLQEAKEQFERQTAVLQQQVTVNTEELKGTEVQLTELRRTSQSLEIELQSHLSMKESLEHTLEETKARYSSQLANLQSLLSSLEAQLMQIRSNMERQNNEYHILLDIKTRLEQEIATYRRLLEGEDVKTTEYQLSTLEERDIKKTRKIKTVVQEVVDGKVVSSEVKEVEENI
partner: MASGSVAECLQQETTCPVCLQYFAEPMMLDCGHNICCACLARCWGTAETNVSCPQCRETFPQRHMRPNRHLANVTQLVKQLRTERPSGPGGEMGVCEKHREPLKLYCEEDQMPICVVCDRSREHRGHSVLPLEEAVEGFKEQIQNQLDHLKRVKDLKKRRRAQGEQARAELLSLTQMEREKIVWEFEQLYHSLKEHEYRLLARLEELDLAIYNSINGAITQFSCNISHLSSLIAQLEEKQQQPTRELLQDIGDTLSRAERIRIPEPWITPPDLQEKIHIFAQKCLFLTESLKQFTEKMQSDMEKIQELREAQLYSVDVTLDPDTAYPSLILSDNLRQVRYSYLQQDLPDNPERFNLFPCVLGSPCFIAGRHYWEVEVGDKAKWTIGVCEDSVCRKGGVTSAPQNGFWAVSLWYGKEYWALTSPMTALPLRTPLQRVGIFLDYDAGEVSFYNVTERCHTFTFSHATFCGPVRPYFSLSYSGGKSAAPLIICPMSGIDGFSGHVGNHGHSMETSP
B2: Synaptonemal complex central element protein 3 (Homo sapiens), A1L190 (parent)
chain: MDDADPEERNYDNMLKMLSDLNKDLEKLLEEMEKISVQATWMAYDMVVMRTNPTLAESMRRLEDAFVNCKEEMEKNWQELLHETKQRL
partner: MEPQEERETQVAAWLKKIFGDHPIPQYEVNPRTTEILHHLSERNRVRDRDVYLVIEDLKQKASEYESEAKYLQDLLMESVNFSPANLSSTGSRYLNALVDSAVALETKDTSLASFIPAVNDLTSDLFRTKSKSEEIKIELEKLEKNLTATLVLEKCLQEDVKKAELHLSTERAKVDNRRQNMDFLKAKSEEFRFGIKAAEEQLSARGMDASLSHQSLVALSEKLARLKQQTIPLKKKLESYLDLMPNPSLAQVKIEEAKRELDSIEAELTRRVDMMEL
B3: 3-hydroxyanthranilate 3,4-dioxygenase (Homo sapiens), P46952 (parent)
chain: MERRLGVRAWVKENRGSFQPPVCNKLMHQEQLKVMFIGGPNTRKDYHIEEGEEVFYQLEGDMVLRVLEQGKHRDVVIRQGEIFLLPARVPHSPQRFANTVGLVVERRRLETELDGLRYYVGDTMDVLFEKWFYCKDLGTQLAPIIQEFFSSEQYRTGKPIPDQLLKEPPFPLSTRSIMEPMSLDAWLDSHHRELQAGTPLSLFGDTYETQVIAYGQGSSEGLRQNVDVWLWQLEGSSVVTMGGRRLSLAPDDSLLVLAGTSYAWERTQGSVALSVTQDPACKKPLG
partner: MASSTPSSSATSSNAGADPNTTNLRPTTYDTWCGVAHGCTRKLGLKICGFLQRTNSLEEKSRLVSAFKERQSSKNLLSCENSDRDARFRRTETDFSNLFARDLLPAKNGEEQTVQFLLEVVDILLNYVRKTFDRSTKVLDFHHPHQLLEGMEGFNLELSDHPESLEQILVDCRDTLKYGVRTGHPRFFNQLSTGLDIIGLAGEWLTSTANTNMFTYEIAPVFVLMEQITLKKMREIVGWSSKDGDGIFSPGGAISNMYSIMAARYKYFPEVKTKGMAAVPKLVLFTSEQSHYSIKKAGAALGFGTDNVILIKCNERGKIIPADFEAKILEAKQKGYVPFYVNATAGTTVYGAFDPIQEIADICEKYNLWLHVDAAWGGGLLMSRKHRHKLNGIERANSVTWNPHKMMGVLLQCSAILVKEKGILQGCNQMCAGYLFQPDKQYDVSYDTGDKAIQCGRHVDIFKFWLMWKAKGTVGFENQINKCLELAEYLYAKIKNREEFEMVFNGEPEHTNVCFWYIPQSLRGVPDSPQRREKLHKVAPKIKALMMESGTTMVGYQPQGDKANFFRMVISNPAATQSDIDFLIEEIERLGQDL
B4: Tuftelin-interacting protein 11 (Homo sapiens), Q9UBB9 (parent)
chain: MSLSHLYRDGEGRIDDDDDERENFEITDWDLQNEFNPNRQRHWQTKEEATYGVWAERDSDDERPSFGGKRARDYSAPVNFISAGLKKGAAEEAELEDSDDEEKPVKQDDFPKDFGPRKLKTGGNFKPSQKGFAGGTKSFMDFGSWERHTKGIGQKLLQKMGYVPGRGLGKNAQGIINPIEAKQRKGKGAVGAYGSERTTQSMQDFPVVDSEEEAEEEFQKELSQWRKDPSGSKKKPKYSYKTVEELKAKGRISKKLTAPQKELSQVKVIDMTGREQKVYYSYSQISHKHNVPDDGLPLQSQQLPQSGKEAKAPGFALPELEHNLQLLIDLTEQEIIQNDRQLQYERDMVVNLFHELEKMTEVLDHEERVISNLSKVLEMVEECERRMQPDCSNPLTLDECARIFETLQDKYYEEYRMSDRVDLAVAIVYPLMKEYFKEWDPLKDCTYGTEIISKWKSLLENDQLLSHGGQDLSADAFHRLIWEVWMPFVRNIVTQWQPRNCDPMVDFLDSWVHIIPVWILDNILDQLIFPKLQKEVENWNPLTDTVPIHSWIHPWLPLMQARLEPLYSPIRSKLSSALQKWHPSDSSAKLILQPWKDVFTPGSWEAFMVKNIVPKLGMCLGELVINPHQQHMDAFYWVIDWEGMISVSSLVGLLEKHFFPKWLQVLCSWLSNSPNYEEITKWYLGWKSMFSDQVLAHPSVKDKFNEALDIMNRAVSSNVGAYMQPGARENIAYLTHTERRKDFQYEAMQERREAENMAQRGIGVAASSVPMNFKDLIETKAEEHNIVFMPVIGKRHEGKQLYTFGRIVIYIDRGVVFVQGEKTWVPTSLQSLIDMAK
partner: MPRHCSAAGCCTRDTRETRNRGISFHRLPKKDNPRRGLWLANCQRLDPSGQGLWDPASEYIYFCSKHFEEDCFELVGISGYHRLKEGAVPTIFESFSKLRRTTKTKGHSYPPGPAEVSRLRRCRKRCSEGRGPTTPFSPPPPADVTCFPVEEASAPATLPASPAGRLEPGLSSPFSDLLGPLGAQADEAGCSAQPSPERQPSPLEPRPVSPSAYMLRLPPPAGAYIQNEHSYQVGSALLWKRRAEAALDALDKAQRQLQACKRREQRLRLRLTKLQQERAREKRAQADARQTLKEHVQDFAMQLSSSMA
B5: Forkhead box protein R2 (Homo sapiens), Q6PJQ5 (parent)
chain: MDLKLKDCEFWYSLHGQVPGLLDWDMRNELFLPCTTDQCSLAEQILAKYRVGVMKPPEMPQKRRPSPDGDGPPCEPNLWMWVDPNILCPLGSQEAPKPSGKEDLTNISPFPQPPQKDEGSNCSEDKVVESLPSSSSEQSPLQKQGIHSPSDFELTEEEAEEPDDNSLQSPEMKCYQSQKLWQINNQEKSWQRPPLNCSHLIALALRNNPHCGLSVQEIYNFTRQHFPFFWTAPDGWKSTIHYNLCFLDSFEKVPDSLKDEDNARPRSCLWKLTKEGHRRFWEETRVLAFAQRERIQECMSQPELLTSLFDL
partner: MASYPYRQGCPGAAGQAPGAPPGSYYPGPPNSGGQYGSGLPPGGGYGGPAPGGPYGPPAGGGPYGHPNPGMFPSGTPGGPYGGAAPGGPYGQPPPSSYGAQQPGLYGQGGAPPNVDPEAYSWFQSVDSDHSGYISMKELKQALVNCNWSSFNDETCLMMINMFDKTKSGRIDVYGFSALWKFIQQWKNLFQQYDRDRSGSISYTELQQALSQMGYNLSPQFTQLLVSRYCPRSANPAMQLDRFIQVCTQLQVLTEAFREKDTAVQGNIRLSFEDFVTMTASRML
B6: Ligand of Numb protein X 2 (Homo sapiens), Q8N448 (parent)
chain: MGTTSDEMVSVEQTSSSSLNPLCFECGQQHWTRENHLYNYQNEVDDDLVCHICLQPLLQPLDTPCGHTFCYKCLRNFLQEKDFCPLDRKRLHFKLCKKSSILVHKLLDKLLVLCPFSSVCKDVMQRCDLEAHLKNRCPGASHRRVALERRKTSRTQAEIENENGPTLLDPAGTLSPEADCLGTGAVPVERHLTSASLSTWSEEPGLDNPAFEESAGADTTQQPLSLPEGEITTIEIHRSNPYIQLGISIVGGNETPLINIVIQEVYRDGVIARDGRLLAGDQILQVNNYNISNVSHNYARAVLSQPCNTLHLTVLRERRFGNRAHNHSDSNSPREEIFQVALHKRDSGEQLGIKLVRRTDEPGVFILDLLEGGLAAQDGRLSSNDRVLAINGHDLKYGTPELAAQIIQASGERVNLTIARPGKPQPGNTIREAGNHSSSSQHHTPPPYYSRPSSHKDLTQCVTCQEKHITVKKEPHESLGMTVAGGRGSKSGELPIFVTSVPPHGCLARDGRIKRGDVLLNINGIDLTNLSHSEAVAMLKASAASPAVALKALEVQIVEEATQNAEEQPSTFSENEYDASWSPSWVMWLGLPSTLHSCHDIVLRRSYLGSWGFSIVGGYEENHTNQPFFIKTIVLGTPAYYDGRLKCGDMIVAVNGLSTVGMSHSALVPMLKEQRNKVTLTVICWPGSLV
partner: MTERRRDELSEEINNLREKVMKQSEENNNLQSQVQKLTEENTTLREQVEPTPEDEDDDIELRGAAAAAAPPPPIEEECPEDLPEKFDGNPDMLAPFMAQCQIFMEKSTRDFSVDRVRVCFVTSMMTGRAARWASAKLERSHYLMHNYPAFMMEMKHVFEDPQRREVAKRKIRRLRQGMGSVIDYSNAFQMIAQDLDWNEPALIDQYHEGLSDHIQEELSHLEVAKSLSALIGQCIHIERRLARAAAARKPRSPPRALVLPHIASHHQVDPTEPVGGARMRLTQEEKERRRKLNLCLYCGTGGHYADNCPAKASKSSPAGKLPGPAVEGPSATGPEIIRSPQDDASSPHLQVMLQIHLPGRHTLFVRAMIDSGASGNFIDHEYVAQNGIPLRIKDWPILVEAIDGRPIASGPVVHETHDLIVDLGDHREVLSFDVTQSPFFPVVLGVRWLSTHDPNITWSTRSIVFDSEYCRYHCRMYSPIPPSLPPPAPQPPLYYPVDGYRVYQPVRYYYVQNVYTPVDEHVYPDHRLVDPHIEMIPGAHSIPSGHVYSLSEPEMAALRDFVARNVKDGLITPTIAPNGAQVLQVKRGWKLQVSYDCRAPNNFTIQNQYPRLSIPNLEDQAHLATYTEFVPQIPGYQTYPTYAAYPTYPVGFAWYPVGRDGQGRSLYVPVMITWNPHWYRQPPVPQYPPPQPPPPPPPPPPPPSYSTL

Variants of: B1
Settings: with tri27_human TRIM27, P14373

Row | effect of a mutation on the interaction | Variant
1 | with no effect | S129N
2 | with no effect | S309Y

Variants of: B2
Settings: with haus1_human HAUS1, Q96CS2

Row | effect of a mutation on the interaction | Variant
3 | with no effect | R50C
4 | with no effect | A65G

Variants of: B3
Settings: with dce1_human GAD1, Q99259

Row | effect of a mutation on the interaction | Variant
5 | with no effect | I37V
6 | with no effect | T42S

Variants of: B4
Settings: with thap7_human THAP7, Q9BT49

Row | effect of a mutation on the interaction | Variant
7 | with no effect | S688L
8 | with no effect | R8Q

Variants of: B5
Settings: with pef1_human PEF1, Q9UBV8

Row | effect of a mutation on the interaction | Variant
9 | disrupting interaction strength | I218F
10 | with no effect | V286A

Variants of: B6
Settings: with peg10_human PEG10, Q86TG7

Row | effect of a mutation on the interaction | Variant
11 | with no effect | V145I
